Results as given in article PMC2190117.
Values joined by “and” are separate entries in the source; they are usually repeats but may differ in a detail not shown here. Equal values may be shown once. Read-outs that look alike come from different tables or passages of the source.

Assays:
[1] = target: human C3b (human) (UniProt P01024); assay: immunostaining of cells or tissue
[2] = target: human C3b (human) (UniProt P01024); assay: immunostaining of cells or tissue; remark: listed apart in the source
[3] = target: human C3b (human) (UniProt P01024); assay: immunostaining of cells or tissue; remark: listed apart in the source
[4] = target: human C3b (human) (UniProt P01024); assay: immunostaining of cells or tissue; remark: listed apart in the source
[5] = target: human C3b (human) (UniProt P01024); assay: immunostaining of cells or tissue; remark: listed apart in the source
[6] = target: human C3b (human) (UniProt P01024); assay: immunostaining of cells or tissue; remark: listed apart in the source
[7] = target: C3-C3b receptor (human (endogenous in Raji, Daudi and HPL)); assay: immunostaining of cells or tissue
[8] = target: C3-C3b receptor (human (endogenous in Raji, Daudi and HPL)); assay: rosette formation
[9] = target: C3-C3b receptor (human (endogenous in Raji, Daudi and HPL)); assay: immunostaining of cells or tissue; remark: listed apart in the source

UniProt P01024, sequence (P01024 23-667, chain 1 of 2): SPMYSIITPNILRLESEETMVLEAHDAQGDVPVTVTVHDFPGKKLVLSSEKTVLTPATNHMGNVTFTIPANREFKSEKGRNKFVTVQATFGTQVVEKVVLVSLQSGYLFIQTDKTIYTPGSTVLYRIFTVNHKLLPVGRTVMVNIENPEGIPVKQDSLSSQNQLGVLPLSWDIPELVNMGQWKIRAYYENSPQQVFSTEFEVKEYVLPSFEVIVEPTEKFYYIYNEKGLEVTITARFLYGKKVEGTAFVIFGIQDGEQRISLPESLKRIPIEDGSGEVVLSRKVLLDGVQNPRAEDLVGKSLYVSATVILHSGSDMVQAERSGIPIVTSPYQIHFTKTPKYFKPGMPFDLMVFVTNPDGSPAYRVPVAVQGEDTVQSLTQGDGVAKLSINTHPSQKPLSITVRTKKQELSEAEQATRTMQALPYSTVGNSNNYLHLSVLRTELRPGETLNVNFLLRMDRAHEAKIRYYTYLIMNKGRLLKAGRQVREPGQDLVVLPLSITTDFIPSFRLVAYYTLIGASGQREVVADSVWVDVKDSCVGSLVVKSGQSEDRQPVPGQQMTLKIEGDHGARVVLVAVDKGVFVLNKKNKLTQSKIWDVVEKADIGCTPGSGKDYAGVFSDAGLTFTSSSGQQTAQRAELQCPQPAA
UniProt P01024, sequence (P01024 749-1663, chain 2 of 2): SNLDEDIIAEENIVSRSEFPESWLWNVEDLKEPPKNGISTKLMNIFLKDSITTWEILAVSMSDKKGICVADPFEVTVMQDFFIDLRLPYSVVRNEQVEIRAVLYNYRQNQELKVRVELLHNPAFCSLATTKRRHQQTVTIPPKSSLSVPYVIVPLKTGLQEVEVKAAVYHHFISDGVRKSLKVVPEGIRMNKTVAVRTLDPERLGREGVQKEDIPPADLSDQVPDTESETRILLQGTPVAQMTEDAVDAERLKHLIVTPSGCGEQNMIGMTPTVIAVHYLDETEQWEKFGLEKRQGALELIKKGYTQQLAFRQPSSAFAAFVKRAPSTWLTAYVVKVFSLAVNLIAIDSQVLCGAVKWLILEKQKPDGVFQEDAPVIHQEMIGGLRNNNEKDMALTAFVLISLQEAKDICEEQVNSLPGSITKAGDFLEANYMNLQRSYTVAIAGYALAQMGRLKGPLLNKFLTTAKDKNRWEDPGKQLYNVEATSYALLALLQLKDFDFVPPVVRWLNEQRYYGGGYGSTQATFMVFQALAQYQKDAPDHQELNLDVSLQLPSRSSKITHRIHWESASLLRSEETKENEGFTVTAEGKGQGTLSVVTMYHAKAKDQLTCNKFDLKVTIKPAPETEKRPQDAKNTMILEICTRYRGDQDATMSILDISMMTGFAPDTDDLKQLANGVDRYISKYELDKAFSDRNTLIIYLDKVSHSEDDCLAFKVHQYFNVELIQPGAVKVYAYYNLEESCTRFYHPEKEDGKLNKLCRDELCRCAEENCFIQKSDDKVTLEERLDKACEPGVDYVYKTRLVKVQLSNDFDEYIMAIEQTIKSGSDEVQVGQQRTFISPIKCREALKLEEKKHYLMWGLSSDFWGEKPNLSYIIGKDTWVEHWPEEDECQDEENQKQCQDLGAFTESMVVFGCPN

| percent immunofluorescence positive cells [1] | percent immunofluorescence positive cells [2] | percent immunofluorescence positive cells [3] | percent immunofluorescence positive cells [4] | percent immunofluorescence positive cells [5] | percent immunofluorescence positive cells [6] | percent cells binding [7] | percent rosette-forming cells [8] | percent cells binding [9] | percent immunofluorescence positive cells [9] | percent immunofluorescence positive cells [7] | Substance |
| --- | --- | --- | --- | --- | --- | --- | --- | --- | --- | --- | --- |
| 2% | 89% | 5% | 5% | 93% | 95% | – | – | – | – | – | factor B (natural protein) |
| – | – | – | – | – | – | 90% | 100% and 98% | 100% | 98% | – | human C3b (from UniProt P01024 23-667; P01024 749-1663) (domain or fragment) |
| – | – | – | – | – | – | 90% | – | 100% | 100% | 100% | human complement component C3 (from UniProt P01024 23-667; P01024 672-1663) (natural protein) |
